{"source": "patent US20230212643", "about": "“DNA NANOARCHITECTURES FOR PATTERN-RECOGNIZED […] OF DISEASES” (RENSSELAER POLYTECHNIC INSTITUTE, published 2023)", "binders": {"B1": {"name": "monovalent ED3-binding DNA aptamer (ssDNA)", "DNA": "GCACCGGGAGGGAGGGAGGGCTTTT"}}, "molecular_target": "Dengue virus envelope protein domain III (ED3), on intact DENV serotype 2 virions (Dengue virus 2 (New Guinea C), UniProt P14340 P14340:576-674)", "sequence (P14340 576-674, one chain of several)": "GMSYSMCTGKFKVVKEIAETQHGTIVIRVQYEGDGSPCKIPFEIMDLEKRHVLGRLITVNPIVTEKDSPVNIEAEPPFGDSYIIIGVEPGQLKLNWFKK", "assay": "inhibition; plaque reduction on Vero cells, DENV2 NGC in human serum, 37 C", "details": "protein: virion; tags: none", "description": "The in vitro inhibition of DENV through standard antiviral, plaque forming EC₅₀ assays was also examined. DENV viral particles were incubated with different concentrations of each inhibitor in human serum and the remaining infectivity was determined by a plaque reduction assay. The dose-dependent inhibition of DENV for the monovalent aptamer and each of the scaffold-aptamer complexes was examined (FIG. 5A). The EC₅₀ value (half maximal effective concentration) of the scaffold for DENV infection inhibition was 2 nM, whereas the EC₅₀ value of the monovalent aptamer was 15 μM (FIG. 5B).\nFor the in vitro inhibition of DENV (EC₅₀ and plaque assays), vero cells were seeded at a density of 3×10⁵ cells/3 mL MEM culture medium (with 10% FBS) in each well of a 6-well plate 72 h prior to infection. Approximately 200 plaque forming units of DENV serotype 2 (DENV2 NGC), after dilution in Hank's Balanced Salt Solution (HBSS) (GIBCO, Grand Island, N.Y.) including 0.4% (w/v) bovine albumin fraction V (BSA fraction V, GIBCO), were incubated at a 1:1 ratio in human serum (with or without an inhibitor). The mixtures were incubated in a 5% CO₂ incubator at 37° C. for 1 h. Then virus-inhibitor or virus-control mixtures were used directly to infect the confluent monolayer of Vero cells or diluted in MEM+2% FBS before being added onto the Vero cell monolayers. The inoculum was 100 μl/well. […]", "data": [{"binder": "B1", "values": [{"measurement": "EC50", "value": 15, "unit": "µM"}]}]}
